This is an account of results in article PMC8565330.

In this data set the target is GST-G3BP1 (human, UniProt Q13283 1-466). In words: fluorescence anisotropy. Background: Polarisation of emitted light reports the rotation of a fluorescent probe.
GST-G3BP1, sequence (Q13283 whole entry): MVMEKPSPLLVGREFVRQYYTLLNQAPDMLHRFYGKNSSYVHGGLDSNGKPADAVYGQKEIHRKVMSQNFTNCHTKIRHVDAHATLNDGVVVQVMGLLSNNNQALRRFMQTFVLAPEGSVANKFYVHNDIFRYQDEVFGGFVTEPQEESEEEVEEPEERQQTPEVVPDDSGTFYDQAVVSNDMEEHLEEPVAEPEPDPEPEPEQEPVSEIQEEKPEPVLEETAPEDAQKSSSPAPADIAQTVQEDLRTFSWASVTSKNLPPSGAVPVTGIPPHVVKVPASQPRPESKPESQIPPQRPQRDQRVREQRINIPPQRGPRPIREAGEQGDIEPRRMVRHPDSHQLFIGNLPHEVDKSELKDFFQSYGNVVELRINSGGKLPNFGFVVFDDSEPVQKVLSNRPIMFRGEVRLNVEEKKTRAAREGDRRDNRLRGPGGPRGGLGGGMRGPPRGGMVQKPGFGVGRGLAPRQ

B1: PITX1 rM4 (ssRNA)
RNA: GAGCGCGGAAGCGCGCGCGCGCGCGCGCGG
In general, Kd refers to a measure of binding affinity in units of concentration. On to B1, for which the Kd was determined as 761 ± 73 nM.

B2: NRAS rM4 (ssRNA)
RNA: GUGUAAAAGGGGCGGGUCUGGGUGCG
Molecule B2 registered a Kd of 266 ± 36 nM.
